{
  "source": "paper PMC8444619",
  "test_in_all_cases": "cross-linking",
  "key": {"[1]": {"molecular_target": "HA-tagged GST V125-TAG (azF) (E. coli) (UniProt P0A9D2)"}, "[2]": {"molecular_target": "NS4B^HA (HA-tagged HCV NS4B, wild type, in NS3-5B-4B^HA) (hepatitis C virus)"}, "[3]": {"molecular_target": "NS4B^HA A180-TAG (azF) (hepatitis C virus)"}, "[4]": {"molecular_target": "NS4B^HA I96-TAG (azF) (hepatitis C virus)"}, "[5]": {"molecular_target": "NS4B^HA K162-TAG (azF) (hepatitis C virus)"}, "[6]": {"molecular_target": "NS4B^HA M80-TAG (azF) (hepatitis C virus)"}, "[7]": {"molecular_target": "NS5A^HA I15-TAG (azF) F36A/I37A/S38A/R112A/E148A (hepatitis C virus)"}, "[8]": {"molecular_target": "NS5A^HA W84-TAG (azF) (hepatitis C virus)"}, "[9]": {"molecular_target": "NS5A^HA W84-TAG (azF) D18A (hepatitis C virus)"}},
  "data": [
    {"substance": "HA-tagged GST V125-TAG (azF) (from UniProt P0A9D2 1-201) (enzyme)", "values": [
      {"measurement": "stoichiometry N", "setting": "[1]", "value": 2}
    ]},
    {"substance": "NS4B^HA (HA-tagged HCV NS4B, wild type, in NS3-5B-4B^HA) (natural protein)", "values": [
      {"measurement": "stoichiometry N", "setting": "[2]", "value": 2}
    ]},
    {"substance": "NS4B^HA A180-TAG (azF) (natural protein)", "values": [
      {"measurement": "stoichiometry N", "setting": "[3]", "value": 2}
    ]},
    {"substance": "NS4B^HA I96-TAG (azF) (natural protein)", "values": [
      {"measurement": "stoichiometry N", "setting": "[4]", "value": 2}
    ]},
    {"substance": "NS4B^HA K162-TAG (azF) (natural protein)", "values": [
      {"measurement": "stoichiometry N", "setting": "[5]", "value": 2}
    ]},
    {"substance": "NS4B^HA M80-TAG (azF) (natural protein)", "values": [
      {"measurement": "stoichiometry N", "setting": "[6]", "value": 2}
    ]},
    {"substance": "NS5A^HA I15-TAG (azF) F36A/I37A/S38A/R112A/E148A (natural protein)", "values": [
      {"measurement": "percent of the control level (% of the control level)", "setting": "[7]", "value": 55}
    ]},
    {"substance": "NS5A^HA W84-TAG (azF) (natural protein)", "values": [
      {"measurement": "stoichiometry N", "setting": "[8]", "value": 2}
    ]},
    {"substance": "NS5A^HA W84-TAG (azF) D18A (natural protein)", "values": [
      {"measurement": "percent of the control level (% of the control level)", "setting": "[9]", "value": 66}
    ]}
  ]
}
